Data published in article PMC8307404, “Crystal Structure-Guided Design of Bisubstrate Inhibitors and Photoluminescent Probes for Protein Kinases of the PIM Family” (Molecules, 2021).
Read-outs that look alike come from different tables or passages of the source. Square brackets hold non-standard residues; d marks the D form. Peptide text beside a SMILES is read from it. * marks the point of attachment. X3 = O=C(CCCCCNCc1nc2c(sc3cc(Br)cnc32)c(=O)[nH]1)*

Experiments:
[1] = molecular target: GSK3 (Homo sapiens, UniProt P49841); assay: Kinase profiling (radiometric filter-binding); assay type: biochemical; conditions: GSK3 (Greek letter lost), 1 µM inhibitor; read-out: Residual activity, %
Summary of the method: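 Activity remaining (% of control without inhibitor) at 1 µM final compound; human kinases, ATP ≤ KM, radiometric filter binding.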

[2] = molecular target: PIM1 (Homo sapiens, UniProt P11309); assay: Binding/displacement assay with FA or TGLI readout; parameters: made in house; conditions: KD, nM (PIM-1), TGLI or FA readout; mean ± SEM, N = 2
Protocol: (§2) The affinities of the compounds toward the PIM family PKs were determined in a binding/displacement assay with measurement of fluorescence anisotropy (FA) and time-gated luminescence intensity (TGLI) (Table 2). For the initial assessment of the selectivity of compounds, PKAcα was used as the reference basophilic kinase [10].
(§3) Optical FA measurement modules for 5-TAMRA-labeled compounds (ex. 540(20) nm, em. 590(20) nm and 590(20) nm), for Cy5-labeled compounds (ex. 590(50) nm, em. 675(50) nm and 675(50) nm), and optical TGLI measurement modules for ARC-1451 (ex. 330(60) nm, em. 590(50) nm), for ARC-1188 (ex. 330(60) nm, em. 675(50) nm) were used for assays with PHERAstar microplate reader (BMG Labtech; Ortenberg, Germany). TGLI measurements were performed with a delay time of 50 μs and integration of the signal for 150 μs. In each measurement, emission from 200 flashes of excitation radiation was collected. The measurement solutions (20 µL volumes) were prepared in black 384-well low-binding surface microtiter plates (Corning #4514; Kennebunk, ME, USA) and incubated for 20 min at 30 °C before the measurements. The assay buffer contained HEPES hemisodium salt (pH 7.4, 50 mM), NaCl (150 mM), dithiothreitol (5 mM), bovine serum albumin (0.5 mg/mL), and Tween-20 (0.005%). […] 5.04 (GraphPad Software, Inc.) was used for data analysis with FA [32] or TGLI [33] readouts.

[3] = molecular target: T1, PKAcα (Homo sapiens, UniProt P17612); assay: Binding/displacement assay with FA or TGLI readout
T1 construct: purchased Biaffin GmbH & Co KG (Kassel, Germany)
Protocol: The affinities of the compounds toward the PIM family PKs were determined in a binding/displacement assay with measurement of fluorescence anisotropy (FA) and time-gated luminescence intensity (TGLI) (Table 2). For the initial assessment of the selectivity of compounds, PKAcα was used as the reference basophilic kinase.
Optical FA measurement modules for 5-TAMRA-labeled compounds (ex. 540(20) nm, em. 590(20) nm and 590(20) nm), for Cy5-labeled compounds (ex. 590(50) nm, em. 675(50) nm and 675(50) nm), and optical TGLI measurement modules for ARC-1451 (ex. 330(60) nm, em. 590(50) nm), for ARC-1188 (ex. 330(60) nm, em. 675(50) nm) were used for assays with PHERAstar microplate reader (BMG Labtech; Ortenberg, Germany). TGLI measurements were performed with a delay time of 50 μs and integration of the signal for 150 μs. In each measurement, emission from 200 flashes of excitation radiation was collected. The measurement solutions (20 µL volumes) were prepared in black 384-well low-binding surface microtiter plates (Corning #4514; Kennebunk, ME, USA) and incubated for 20 min at 30 °C before the measurements. The assay buffer contained HEPES hemisodium salt (pH 7.4, 50 mM), NaCl (150 mM), dithiothreitol (5 mM), bovine serum albumin (0.5 mg/mL), and Tween-20 (0.005%). GraphPad Prism v. 5.04 (GraphPad Software, Inc.) was used for data analysis with FA [32] or TGLI [33] readouts. Representative titration curves can be found in Supplementary Figure S7.

[4] = molecular target: PIM2 (Homo sapiens, UniProt Q9P1W9); assay: Binding/displacement assay with FA or TGLI readout; parameters: made in house; conditions: mean ± SEM, N = 2
Protocol: as §2, §3

[5] = test system: U2OS cells; assay: Cellular uptake of fluorescent probes, live-cell microscopy; assay type: cell-based, human; conditions: 1–5 μM, 10–60 min
Protocol: For studies of the general internalization properties of ARCs, the cells were seeded at the density of 12,000–25,000 cells per well onto an Ibidi μ-plate (96-well; Ibidi GmbH, Planegg, Germany). After 24 h incubation in growth medium, the cells were treated for 10 min, 30 min, or 1 h with dilutions of compounds 6, 7, 8, or ARC-2090 (5 μM, 2.5 μM, or 1 μM final concentration) in the phenol red-free DMEM/Ham’s F12 medium supplemented with 2% ccFBS and 2 mM glutamine. Next, cells were washed twice with PBS, and imaging medium (MEMO + Supplement A 1:100) was applied subsequently. Cells were imaged with Cytation 5 wide-field microscope (BioTek; Winooski, VT, USA) using 20× air objective and the following settings: for Cy5, 623 nm LED (intensity: 2) and Cy5 filter cube (685 nm) with 104 ms integration time and detector gain value of 2; for TAMRA, 523 nm LED (intensity: 7) and RFP filter cube (593 nm) with 252 ms integration time and detector gain value of 16; for bright-field, white LED with intensity 6, 186 ms integration time and detector gain value of 15. Four independent experiments were performed.

[6] = molecular target: PIM3 (Homo sapiens, UniProt Q86V86); assay: Binding/displacement assay with FA or TGLI readout; parameters: made in house; conditions: mean ± SEM, N = 2
Protocol: as §2, §3

[7] = test system: AMPK; assay: Kinase profiling (radiometric filter-binding); assay type: biochemical, human; conditions: 1 µM inhibitor
Protocol: (§1) Kinase selectivity profiling was performed using the commercial service provided by the MRC PPU International Centre for Kinase Profiling (Dundee, UK) using a radiometric filter-binding assay. Kinases used for analysis were of human origin. The ATP concentration applied for inhibition measurements was at or below the ATP KM value of the particular PK. ARC-3125 and ARC-3126 were screened against 139 PKs, whereas compounds 1, 2, and 8 were screened against 140 PKs. The final total concentration of inhibitors in the selectivity panel was 1 µM. Residual activities were expressed as the percentage of retained activity compared to the control without inhibitor.

[8] = test system: p38 MAPK; assay: Kinase profiling (radiometric filter-binding); assay type: biochemical, human; conditions: 1 µM inhibitor
Protocol: as §1

[9] = test system: PINK; assay: Kinase profiling (radiometric filter-binding); assay type: biochemical, human; conditions: 1 µM inhibitor
Protocol: as §1

[10] = test system: panel of 140 PKs; assay: Kinase selectivity profiling, panel metrics; assay type: biochemical, human; conditions: 1 µM compound; kinases other than PIM family
Protocol: as §1
From the residual activities, values of the Gini coefficient and hit rate were calculated for each individual compound. The Gini coefficient is a single-value metric whose value for a specific inhibitor depends on the number and origin of the PKs in the panel, but also on concentration of the tested compound [70]. Hit rate is the number of kinases inhibited by over 50%.

[11] = test system: PIM family; assay: Kinase profiling (radiometric filter-binding), PIM family; assay type: biochemical, human; conditions: 1 µM compound
Protocol: as §1

[12] = TGLI or FA readout, mean ± SEM, N = 2, read-out: KD, nM (PKAcα)
[13] = fourth of four lines (Greek letter lost)
[14] = third of four lines (Greek letter lost)

GSK3, sequence (P49841 whole entry): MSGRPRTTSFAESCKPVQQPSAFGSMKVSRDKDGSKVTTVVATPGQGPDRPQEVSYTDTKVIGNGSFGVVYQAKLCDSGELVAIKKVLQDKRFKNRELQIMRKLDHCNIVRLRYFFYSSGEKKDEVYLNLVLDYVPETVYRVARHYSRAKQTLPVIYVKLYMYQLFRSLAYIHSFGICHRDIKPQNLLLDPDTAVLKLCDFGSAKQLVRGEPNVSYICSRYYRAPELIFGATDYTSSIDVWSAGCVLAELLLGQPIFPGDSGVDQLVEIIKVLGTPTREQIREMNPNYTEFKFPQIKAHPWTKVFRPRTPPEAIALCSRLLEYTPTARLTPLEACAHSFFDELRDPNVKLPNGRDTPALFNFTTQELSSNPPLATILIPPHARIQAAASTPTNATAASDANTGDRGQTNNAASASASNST
PIM1, sequence (P11309 whole entry): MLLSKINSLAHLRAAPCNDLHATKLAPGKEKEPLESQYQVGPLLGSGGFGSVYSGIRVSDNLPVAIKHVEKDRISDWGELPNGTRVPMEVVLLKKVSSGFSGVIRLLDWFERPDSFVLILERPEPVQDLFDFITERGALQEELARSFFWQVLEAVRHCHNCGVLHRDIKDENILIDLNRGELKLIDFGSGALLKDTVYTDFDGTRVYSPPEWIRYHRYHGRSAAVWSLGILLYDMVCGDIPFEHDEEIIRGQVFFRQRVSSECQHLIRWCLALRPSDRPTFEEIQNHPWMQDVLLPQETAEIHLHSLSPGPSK
PIM2, sequence (Q9P1W9 whole entry): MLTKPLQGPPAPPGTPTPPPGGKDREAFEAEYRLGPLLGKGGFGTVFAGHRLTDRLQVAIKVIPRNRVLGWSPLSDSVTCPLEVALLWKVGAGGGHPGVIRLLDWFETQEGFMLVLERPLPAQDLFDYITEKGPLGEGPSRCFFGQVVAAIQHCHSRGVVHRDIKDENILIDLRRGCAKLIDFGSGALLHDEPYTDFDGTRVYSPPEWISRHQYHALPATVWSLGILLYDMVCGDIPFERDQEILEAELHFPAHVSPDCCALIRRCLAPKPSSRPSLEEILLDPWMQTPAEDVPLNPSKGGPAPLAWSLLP

| Compound | remaining activity at 1 µM [1] [%] | Kd [2] [nM] | Kd [3, 12] [nM] | Kd [4] [nM] | ability to cross the plasma membrane / internalization [5] | Kd [6] [nM] | Residual activity, % [7] [%] | Residual activity, % [8, 13] [%] | Residual activity, % [8, 14] [%] | Residual activity, % [9] [%] | residual activity of other basophilic kinases in the panel [10] | residual activity, PIM family, all isoforms [11] | Kd ([3]; read-out: KD toward PKAcα) [nM] |
| --- | --- | --- | --- | --- | --- | --- | --- | --- | --- | --- | --- | --- | --- |
| N=C(N)NCCC[C@@H](NC(=O)CCCCCNC(=O)Cn1cnc2c(I)c(I)c(I)c(I)c21)C(=O)N[C@H](CCCNC(=N)N)C(=O)N[C@H](CCCNC(=N)N)C(=O)N[C@H](CCCNC(=N)N)C(=O)N[C@H](CCCNC(=N)N)C(=O)N[C@H](CCCNC(=N)N)C(=O)N[C@H](CCCCN)C(N)=O [ARC-3125, TIBI-CH2-C(=O)-Ahx-(D-Arg)6-D-Lys-NH2] | 140 ± 13 |  |  |  |  |  |  |  |  |  |  |  |  |
| CN(C)c1ccc2c(c1)Oc1cc(N(C)C)ccc1C21OC(=O)c2cc(C(=O)NCCCC[C@@H](NC(=O)[C@@H](CCCNC(=N)N)NC(=O)CNC(=O)[C@@H](CCCNC(=N)N)NC(=O)[C@@H](CCCNC(=N)N)NC(=O)CCCCc3cn(Cc4nc5c(sc6ccc(Br)cc65)c(=O)[nH]4)nn3)C(N)=O)ccc21 [Compound 8, BBTP-Tap-(D-Arg)2-Gly-D-Arg-[D-Lys(5-TAMRA)]-NH2] |  | 20.5 ± 4 | > 1020 | 157 ± 39 | much lower internalization efficiency | 15.7 ± 3 |  |  |  |  |  |  |  |
| N=C(N)NCCC[C@@H](NC(=O)CNC(=O)[C@@H](CCCNC(=N)N)NC(=O)[C@@H](CCCNC(=N)N)NC(=O)CCCCCCCNCc1nc2c(sc3cc(Br)cnc32)c(=O)[nH]1)C(=O)N[C@H](CCCCN)C(N)=O [Compound 1, BPTP-Aoc-(D-Arg)2-Gly-D-Arg-D-Lys-NH2] | 110 ± 12 | 11.4 ± 1 | 2250 ± 411 | 64 ± 8 |  | 5.2 ± 1 | 92 ± 9 | 116 ± 6 | 109 ± 7 | 116 ± 5 | above 81% |  |  |
| N=C(N)NCCC[C@@H](NC(=O)CNC(=O)[C@@H](CCCNC(=N)N)NC(=O)[C@@H](CCCNC(=N)N)NC(=O)CCCCCCCNCc1nc2c(sc3ccc(Br)cc32)c(=O)[nH]1)C(=O)N[C@H](CCCCN)C(N)=O [Compound 2, BBTP-Aoc-(D-Arg)2-Gly-D-Arg-D-Lys-NH2] | 75 ± 8 | 0.4 ± 0.1 | 853 ± 28 | 3.8 ± 0.2 |  | 2 ± 0.4 | 91 ± 4 | 115 ± 0 | 117 ± 1 | 121 ± 17 |  | 4–7% |  |
| N=C(N)NCCC[C@@H](NC(=O)CCCCCNCc1nc2c(sc3cc(Br)cnc32)c(=O)[nH]1)C(=O)N[C@H](CCCNC(=N)N)C(=O)N[C@H](CCCNC(=N)N)C(=O)N[C@H](CCCNC(=N)N)C(=O)N[C@H](CCCNC(=N)N)C(=O)N[C@H](CCCNC(=N)N)C(=O)N[C@H](CCCCN)C(N)=O [ARC-3126, BPTP-Ahx-(D-Arg)6-D-Lys-NH2] (X3-[dR][dR][dR][dR][dR][dR][dK]-NH2) | 80 | 1.8 ± 0.7 | > 18500 | 2.9 ± 0.5 |  | 2 ± 0.5 | 38 ± 4 | 129 ± 10 | 111 ± 4 |  |  |  | > 18000 |
| N=C(N)NCCC[C@@H](NC(=O)CNC(=O)[C@@H](CCCNC(=N)N)NC(=O)[C@@H](CCCNC(=N)N)NC(=O)Cn1cc(CNCc2nc3c(sc4ccc(Br)cc43)c(=O)[nH]2)nn1)C(=O)N[C@H](CCCCN)C(N)=O [Compound 3, BBTP-Amt-(D-Arg)2-Gly-D-Arg-D-Lys-NH2] | 64 ± 8 | 0.7 ± 0.2 | 1500 ± 266 | 9.9 ± 0.8 |  | 7 ± 1 | 47 ± 6 | 111 ± 1 | 108 ± 8 | 92 ± 0 |  |  |  |
